What all share (test): cell-based or functional assay
The target of assay [1] is glucagon receptor (UniProt P47871).
Assay [2] addresses GIP receptor (UniProt P48546).
Assay [3] deals with GLP-1 receptor (UniProt P43220).
GLP-1 receptor, sequence (P43220 24-463 limits assumed): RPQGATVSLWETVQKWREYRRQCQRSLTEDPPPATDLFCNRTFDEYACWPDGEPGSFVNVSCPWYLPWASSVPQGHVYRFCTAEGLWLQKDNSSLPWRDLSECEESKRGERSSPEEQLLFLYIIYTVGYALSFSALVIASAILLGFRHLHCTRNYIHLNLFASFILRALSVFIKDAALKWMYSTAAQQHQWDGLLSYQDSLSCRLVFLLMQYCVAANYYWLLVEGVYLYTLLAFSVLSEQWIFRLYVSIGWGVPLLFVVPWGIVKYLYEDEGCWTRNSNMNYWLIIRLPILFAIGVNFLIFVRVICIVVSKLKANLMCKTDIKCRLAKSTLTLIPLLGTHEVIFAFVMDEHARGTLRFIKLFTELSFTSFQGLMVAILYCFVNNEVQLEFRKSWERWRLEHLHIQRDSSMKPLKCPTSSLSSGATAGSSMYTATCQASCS

glucagon receptor, sequence (P47871 26-477 limits assumed): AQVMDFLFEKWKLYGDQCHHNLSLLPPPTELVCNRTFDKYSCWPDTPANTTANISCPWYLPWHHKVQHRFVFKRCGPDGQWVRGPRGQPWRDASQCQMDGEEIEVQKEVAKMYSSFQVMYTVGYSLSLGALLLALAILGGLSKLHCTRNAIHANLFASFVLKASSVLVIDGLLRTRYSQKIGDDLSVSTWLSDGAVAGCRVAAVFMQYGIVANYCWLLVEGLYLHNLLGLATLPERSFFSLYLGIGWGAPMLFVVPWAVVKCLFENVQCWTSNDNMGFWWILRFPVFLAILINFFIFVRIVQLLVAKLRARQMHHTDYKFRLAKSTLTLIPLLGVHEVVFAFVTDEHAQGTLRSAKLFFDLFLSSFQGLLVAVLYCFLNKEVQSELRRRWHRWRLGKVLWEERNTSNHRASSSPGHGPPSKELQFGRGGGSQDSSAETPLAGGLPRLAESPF
GIP receptor, sequence (P48546 22-466): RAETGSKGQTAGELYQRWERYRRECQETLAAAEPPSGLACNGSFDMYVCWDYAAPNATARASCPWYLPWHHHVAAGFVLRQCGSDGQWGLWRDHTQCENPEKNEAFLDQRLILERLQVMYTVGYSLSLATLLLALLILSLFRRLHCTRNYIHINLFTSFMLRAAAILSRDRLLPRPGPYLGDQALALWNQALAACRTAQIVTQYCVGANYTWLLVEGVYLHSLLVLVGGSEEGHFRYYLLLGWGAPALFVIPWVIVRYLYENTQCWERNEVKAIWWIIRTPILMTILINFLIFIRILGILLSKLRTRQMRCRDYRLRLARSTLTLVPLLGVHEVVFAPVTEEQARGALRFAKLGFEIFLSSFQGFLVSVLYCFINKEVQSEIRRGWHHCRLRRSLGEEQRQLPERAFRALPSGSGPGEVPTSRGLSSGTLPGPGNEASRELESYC

As to Liraglutide (peptide), in assay [1], the % activity at the glucagon receptor was found to be 0.04%.

What is called EC50 is the concentration giving half of the maximal effect. A lower EC50 goes with higher potency in that assay. For the substance mt-103 (peptide), the results for the EC50 in assay [2], in assay [3] and in assay [1] were 0.000242 µM, 0.0269 µM and more than 4 µM, respectively.

The record behind these values is patent US20110166062A1.
